From US20200247893A1 (CITY OF HOPE, published 2020)

B1: human monoclonal antibody 1D5 (anti-IL1RAP) (antibody, V domains shown)
VH: QVQLVQSGAEVKKPGESLKISCKGSGYSFSSHWIGWVRQMPGKGLEWMGIIYPGDSDTRYSPSFQGQVTISADKSISTAYLQWSSLKASDTAMYYCARGELPGEAYYFDNWGQGTLVTVSS
VL: not shown
notes: also called clone ID5
B2: 2E12 (antibody, V domains shown)
VH: GGGLVQPGGSLRLSCEASGFTFSRYWMHWVRQAPGKGLVWVSRIHTDGSSISYADSVKGRFTISRDNAKNTLYLQMNSLRAEDTAVYYCARDIGGGYSYGSVDYWGQGTLVTVSS
VL: QPVLTQSPSVSVAPGKTTRITCGGDNIGSKSVHWFQQKPGQAPVLVVFGGGDRPSGIPERFSGSNSGNTATLIISGVEGGDEADYYCQVWDGSTDHYIFGAGTMVTVL
B3: D1A4 (antibody, V domains shown)
VH: PGPLVQSGAEVKKPGASVKVSCTTSGFPFNMYGFNWVRQAPGQGLEWMGWISAYNGRTNYAQKFQGRVTMTTDTSTSTSYVELESLTSDDTAVYYCARSGKQQLGSAQPLDSWGQGTLIIVSS
VL: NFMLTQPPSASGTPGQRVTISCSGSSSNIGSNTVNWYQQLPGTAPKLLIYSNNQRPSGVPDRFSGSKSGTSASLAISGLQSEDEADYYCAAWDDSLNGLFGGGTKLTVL

Columns and labels:
[1] = molecular target: T1, recombinant human IL1RAP protein (human, UniProt Q9NPH3 21-359, limits assumed); assay: SPR, Biacore T100
T1 construct: also called recombinant IL1RAP protein; Interleukin-1 receptor accessory protein
T1 sequence (Q9NPH3 21-359 limits assumed): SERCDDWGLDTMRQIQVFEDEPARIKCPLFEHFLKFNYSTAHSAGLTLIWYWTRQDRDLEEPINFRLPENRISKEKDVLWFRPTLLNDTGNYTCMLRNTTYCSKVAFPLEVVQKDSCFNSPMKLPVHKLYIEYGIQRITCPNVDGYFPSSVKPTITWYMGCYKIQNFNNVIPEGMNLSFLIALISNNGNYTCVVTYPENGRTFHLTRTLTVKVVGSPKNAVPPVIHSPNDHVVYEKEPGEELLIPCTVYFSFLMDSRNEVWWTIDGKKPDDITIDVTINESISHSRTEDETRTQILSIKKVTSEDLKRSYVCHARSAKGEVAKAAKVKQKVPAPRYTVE

[2] = molecular target: T1, recombinant human IL1RAP protein; assay: method not given
[3] = molecular target: T1, recombinant human IL1RAP protein; assay: ELISA; 1 µg/ml recombinant IL1RAP coated; antibody in three-fold dilutions from 1 µg/ml; HRP-anti-human FC detection
Experimental: Purified antibodies in three-fold serial dilution starting from 1 μg/ml are added to each well. HRP-anti-human FC antibody is used as detection antibody.

CD3 on T cells = molecular target: T2, CD3 on T cells (Homo sapiens (Human), UniProt P07766 23-207; P04234 22-171; P09693 23-182; P20963 22-164); assay: flow cytometry: T cells incubated with 1D5 in place of the bispecific antibody, then his-tagged recombinant IL1RAP, detection with FITC-anti-his antibody
T2 construct: also called T cell co-receptor CD3
T2 sequence (P07766 23-207 limits assumed, chain 1 of 4): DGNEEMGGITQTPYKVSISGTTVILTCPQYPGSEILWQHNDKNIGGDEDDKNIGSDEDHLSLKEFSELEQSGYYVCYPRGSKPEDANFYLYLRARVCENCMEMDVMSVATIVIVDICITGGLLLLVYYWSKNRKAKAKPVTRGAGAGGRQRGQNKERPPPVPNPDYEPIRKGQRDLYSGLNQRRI
T2 sequence (P04234 22-171 limits assumed, chain 2 of 4): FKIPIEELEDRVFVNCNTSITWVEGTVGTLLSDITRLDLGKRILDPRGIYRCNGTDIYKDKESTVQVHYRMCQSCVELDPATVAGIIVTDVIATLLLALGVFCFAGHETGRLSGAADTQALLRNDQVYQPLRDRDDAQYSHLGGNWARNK
T2 sequence (P09693 23-182 limits assumed, chain 3 of 4): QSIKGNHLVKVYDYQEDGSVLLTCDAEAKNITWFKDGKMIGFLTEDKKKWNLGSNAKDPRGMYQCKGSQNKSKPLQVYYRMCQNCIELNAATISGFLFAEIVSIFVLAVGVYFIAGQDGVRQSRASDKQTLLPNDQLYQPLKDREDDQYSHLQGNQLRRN
T2 sequence (P20963 22-164 limits assumed, chain 4 of 4): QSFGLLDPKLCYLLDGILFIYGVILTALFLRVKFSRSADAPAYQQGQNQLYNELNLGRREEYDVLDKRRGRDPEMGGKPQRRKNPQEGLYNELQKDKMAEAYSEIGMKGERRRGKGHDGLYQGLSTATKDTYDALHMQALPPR

[4] = molecular target: T1, recombinant human IL1RAP protein; assay: ELISA: recombinant IL1RAP protein coated at 1 ug/ml, purified IgG in three-fold serial dilution, HRP-anti-human FC detection, OD450

Binder	Kd [1]	Kd [2]	EC50 [3]	binding result (CD3 on T cells)	EC50 (read off the curve) [4]
B1	21.2 nM	~20 nM	0.0049 µg/mL	no binding	
B2					~0.09 µg/mL
B3					~0.1 µg/mL
